From the FLAb antibody collection

Test: patients with anti-drug antibodies; higher = more immunogenic

Protein	patients with anti-drug antibodies
unnamed (protein) chain 1: QVQLVQPGAEVVKPGASVKLSCKTSGYTFTSNWMHWVKQAPGQGLEWIGEIDPSDSYTNYNQNFQGKAKLTVDKSTSTAYMEVSSLRSDDTAVYYCARGSNPYYYAMDYWGQGTSVTVSS chain 2: EIVLTQSPAIMSASPGERVTMTCSASSGVNYMHWYQQKPGTSPRRWIYDTSKLASGVPARFSGSGSGTDYSLTISSMEPEDAATYYCHQRGSYTFGGGTKLEIK	33%
unnamed (protein) chain 1: EVTLRESGPGLVKPTQTLTLTCTLYGFSLSTSDMGVDWIRQPPGKGLEWLAHIWWDDVKRYNPALKSRLTISKDTSKNQVVLKLTSVDPVDTATYYCARTVSSGYIYYAMDYWGQGTLVTVSS chain 2: DIQMTQSPSSLSASVGDRVTISCRASQDIRNYLNWYQQKPGKAPKLLIFYTSKLHSGVPSRFSGSGSGTDYTLTISSLQPEDIATYYCQQGNTLPLTFGGGTKVEIK	3%
unnamed (protein) chain 1: QVQLVQSGAEVKKPGASVKVSCKASGYTFTRYGISWVRQAPGQGLEWMGWISTYSGNTNYAQKLQGRVTMTTDTSTSTAYMELRSLRSDDTAVYYCARRQLYFDYWGQGTLVTVSS chain 2: EIVMTQSPATLSVSPGERATLSCRASQSVSSNLAWFQQKPGQAPRPLIYDASTRATGVPARFSGSGSGTDFTLTISSLQSEDFAVYYCQQYDNWPLTFGGGTKVEIK	3%
unnamed (protein) chain 1: QIQLQQSGPEVVKPGASVKISCKASGYTFTDYYITWVKQKPGQGLEWIGWIYPGSGNTKYNEKFKGKATLTVDTSSSTAFMQLSSLTSEDTAVYFCANYGNYWFAYWGQGTQVTVSA chain 2: DIVLTQSPASLAVSLGQRATISCKASQSVDFDGDSYMNWYQQKPGQPPKVLIYAASNLESGIPARFSGSGSGTDFTLNIHPVEEEDAATYYCQQSNEDPWTFGGGTKLEIK	35%
unnamed (protein) chain 1: EVQLVESGGGLVQPGGSLRLSCAASGYVFTDYGMNWVRQAPGKGLEWMGWINTYIGEPIYADSVKGRFTFSLDTSKSTAYLQMNSLRAEDTAVYYCARGYRSYAMDYWGQGTLVTVSS chain 2: DIQMTQSPSSLSASVGDRVTITCKASQNVGTNVAWYQQKPGKAPKALIYSASFLYSGVPYRFSGSGSGTDFTLTISSLQPEDFATYYCQQYNIYPLTFGQGTKVEIK	8%
unnamed (protein) chain 1: QVQLVQSGAEVKKPGASVKVSCKVSGYTFTSYDINWVRQAPGKGLEWMGWIYPGDGSIKYNEKFKGRVTMTVDKSTDTAYMELSSLRSEDTAVYYCARRGEYGNYEGAMDYWGQGTLVTVSS chain 2: DIQMTQSPSSLSASVGDRVTITCKASQSVDYDGHSYMNWYQQKPGKAPKLLIYAASNLESGVPSRFSGSGSGTDFTLTISSLQPEDFATYYCQQSDENPLTFGGGTKVEIK	0.9%
unnamed (protein) chain 1: QVQLVESGGGVVQPGRSLRLSCAASGFTFSVYGMNWVRQAPGKGLEWVAIIWYDGDNQYYADSVKGRFTISRDNSKNTLYLQMNGLRAEDTAVYYCARDLRTGPFDYWGQGTLVTVSS chain 2: EIVLTQSPDFQSVTPKEKVTITCRASQSIGSSLHWYQQKPDQSPKLLIKYASQSFSGVPSRFSGSGSGTDFTLTINSLEAEDAAAYYCHQSSSLPFTFGPGTKVDIK	0%
unnamed (protein) chain 1: EVQLVESGGGLVKPGGSLRLSCAASGFTFSNYAMSWVRQTPEKRLEWVATISRSGSYSYFPDSVQGRFTISRDNAKNSLYLQMNSLRAEDTAVYYCARLGGYDEGDAMDSWGQGTTVTVSS chain 2: DIVMTQTPLSLSVTPGQPASISCKSSQSLLESDGKTYLNWYLQKPGQSPQLLIYLVSILDSGVPDRFSGSGSGTDFTLKISRVEAEDVGVYYCLQATHFPQTFGGGTKVEIK	17%
unnamed (protein) chain 1: QVQLVQSGAEVKKPGASVKVSCKASGYTFTNHYMHWVRQAPGQGLEWMGIINPISGSTSNAQKFQGRVTMTRDTSTSTVYMELSSLRSEDTAVYYCARDIVDAFDFWGQGTMVTVSS chain 2: AIQLTQSPSSLSASVGDRVTITCRASQGISSALVWYQQKPGKAPKLLIYDASSLESGVPSRFSGSGSGTDFTLTISSLQPEDFATYYCQQFNDYFTFGPGTKVDIK	5%
unnamed (protein) chain 1: EVQLVESGGGLVEPGGSLRLSCAVSGFDFEKAWMSWVRQAPGQGLQWVARIKSTADGGTTSYAAPVEGRFIISRDDSRNMLYLQMNSLKTEDTAVYYCTSAHWGQGTLVTVSS chain 2: SYELTQPPSVSVSPGQTARITCSGEALPMQFAHWYQQRPGKAPVIVVYKDSERPSGVPERFSGSSSGTTATLTITGVQAEDEADYYCQSPDSTNTYEVFGGGTKLTVL	0%
unnamed (protein) chain 1: EVQLLESGGVLVQPGGSLRLSCAASGFTFSNFGMTWVRQAPGKGLEWVSGISGGGRDTYFADSVKGRFTISRDNSKNTLYLQMNSLKGEDTAVYYCVKWGNIYFDYWGQGTLVTVSS chain 2: DIQMTQSPSSLSASVGDSITITCRASLSINTFLNWYQQKPGKAPNLLIYAASSLHGGVPSRFSGSGSGTDFTLTIRTLQPEDFATYYCQQSSNTPFTFGPGTVVDFR	1.3%
unnamed (protein) chain 1: EVQLVESGGGLVQPGGSLRLSCAASGFTFSSYGMSWVRQAPGKGLELVASINSNGGSTYYPDSVKGRFTISRDNAKNSLYLQMNSLRAEDTAVYYCASGDYWGQGTTVTVSS chain 2: DIVMTQSPLSLPVTPGEPASISCRSSQSLVYSNGDTYLHWYLQKPGQSPQLLIYKVSNRFSGVPDRFSGSGSGTDFTLKISRVEAEDVGVYYCSQSTHVPWTFGQGTKVEIK	0%
unnamed (protein) chain 1: QVQLQESGPGLVKPSETLSLTCTVSGYSITGGYLWNWIRQPPGKGLEWIGYISYDGTNNYKPSLKDRVTISRDTSKNQFSLKLSSVTAADTAVYYCARYGRVFFDYWGQGTLVTVSS chain 2: DIVMTQSPLSLPVTPGEPASISCRSSQSIVHSNGNTYLQWYLQKPGQSPQLLIYKVSNRLYGVPDRFSGSGSGTDFTLKISRVEAEDVGVYYCFQGSHVPWTFGQGTKVEIK	0%
unnamed (protein) chain 1: QVQLQQSGAEVKKPGASVKVSCEASGYTFPSYVLHWVKQAPGQGLEWIGYINPYNDGTQYNEKFKGKATLTRDTSINTAYMELSRLRSDDTAVYYCARGFGGSYGFAYWGQGTLVTVSS chain 2: DIQLTQSPSSLSASVGDRVTMTCSASSSVSSSYLYWYQQKPGKAPKLWIYSTSNLASGVPARFSGSGSGTDFTLTISSLQPEDSASYFCHQWNRYPYTFGGGTRLEIK	10%
unnamed (protein) chain 1: QVQLVQSGAEVKKPGSSVKVSCKASGYTFTSYRMHWVRQAPGQGLEWIGYINPSTGYTEYNQKFKDKATITADESTNTAYMELSSLRSEDTAVYYCARGGGVFDYWGQGTLVTVSS chain 2: DIQMTQSPSTLSASVGDRVTITCSASSSISYMHWYQQKPGKAPKLLIYTTSNLASGVPARFSGSGSGTEFTLTISSLQPDDFATYYCHQRSTYPLTFGQGTKVEVK	19%
unnamed (protein) chain 1: QVQLVQSGAEVKKPGASVKVSCKVSGYTLSDLSIHWVRQAPGKGLEWMGGFDPQDGETIYAQKFQGRVTMTEDTSTDTAYMELSSLKSEDTAVYYCATGSSSSWFDPWGQGTLVTVSS chain 2: DIQMTQSPSSVSASVGDRVTITCRASQGISSWLAWYQQKPGKAPKLLIYGASNLESGVPSRFSGSGSGTDFTLTISSLQPEDFANYYCQQANSFPWTFGQGTKVEIK	0.4%
unnamed (protein) chain 1: EVQLVESGGGLVQPGGSLRLSCAASGFSLSNYYVTWVRQAPGKGLEWVGIIYGSDETAYATSAIGRFTISRDNSKNTLYLQMNSLRAEDTAVYYCARDDSSDWDAKFNLWGQGTLVTVSS chain 2: AIQMTQSPSSLSASVGDRVTITCQASQSINNELSWYQQKPGKAPKLLIYRASTLASGVPSRFSGSGSGTDFTLTISSLQPDDFATYYCQQGYSLRNIDNAFGGGTKVEIK	1.8%
unnamed (protein) chain 1: QVQLQESGPGLVKPSQTLSLTCTVSGGSISSGDYFWSWIRQLPGKGLEWIGHIHNSGTTYYNPSLKSRVTISVDTSKKQFSLRLSSVTAADTAVYYCARDRGGDYYYGMDVWGQGTTVTVSS chain 2: EIVLTQSPGTLSLSPGERATLSCRASQGISRSYLAWYQQKPGQAPSLLIYGASSRATGIPDRFSGSGSGTDFTLTISRLEPEDFAVYYCQQFGSSPWTFGQGTKVEIK	0%
unnamed (protein) chain 1: EVQLVESGGGLVQPGGSLRLSCAASGYSFTGYYIHWVRQAPGKGLEWVARVIPNAGGTSYNQKFKGRFTLSVDNSKNTAYLQMNSLRAEDTAVYYCAREGIYWWGQGTLVTVSS chain 2: DIQMTQSPSSLSASVGDRVTITCRSSQSLVHSNGNTFLHWYQQKPGKAPKLLIYTVSNRFSGVPSRFSGSGSGTDFTLTISSLQPEDFATYFCSQTTHVPWTFGQGTKVEIK	0%
